# According to patent publication US20240018252A1:
# Biological target: human CD3 (huCD3ed) (human) (UniProt P07766)
# Assay: Biacore SPR, antibody as ligand, hCD3ed 80 nM-0.64 nM, kinetic fit
# Chain of human CD3 (huCD3ed) (human) (P07766 23-126, chain 1 of 2): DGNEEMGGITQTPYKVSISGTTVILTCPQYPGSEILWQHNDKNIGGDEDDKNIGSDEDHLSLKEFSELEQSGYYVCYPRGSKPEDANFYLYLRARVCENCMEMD
# Chain of human CD3 (huCD3ed) (human) (P04234 22-105, chain 2 of 2, further chain): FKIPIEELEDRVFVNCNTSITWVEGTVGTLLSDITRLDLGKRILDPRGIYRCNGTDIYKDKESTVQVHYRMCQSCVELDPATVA
substance,measurement,value
SP34 (antibody),Kd,10.7 nM
same,t1/2,3.8 min
